Results on one substance are retold here after publication PMC8459632.

This assay has as its target SpyCatcher‐mi3 fusion protein. The experiment in a line: SDS-PAGE of the covalent conjugate.

“2019‐nCoV RBD‐SpyTag (from UniProt P0DTC2 319-541) (domain or fragment)”: the stoichiometry N (RBD monomers per particle) worked out at 30.
